Target: TIGIT on PHA-activated human peripheral blood mononuclear cells (PBMC) (human) (UniProt Q495A1)
Test: cell-based or functional assay

TIGIT on PHA-activated human peripheral blood mononuclear cells (PBMC) (human), sequence (Q495A1 22-244): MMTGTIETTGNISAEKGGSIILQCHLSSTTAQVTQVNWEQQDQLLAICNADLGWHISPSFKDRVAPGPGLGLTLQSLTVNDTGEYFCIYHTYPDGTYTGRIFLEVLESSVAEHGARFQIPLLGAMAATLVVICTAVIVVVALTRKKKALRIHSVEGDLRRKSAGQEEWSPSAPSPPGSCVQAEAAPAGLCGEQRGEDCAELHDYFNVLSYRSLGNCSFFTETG

Tiragolumab (antibody) was tested, and the IFNγ release, increase over no antibody was 16%.

Reference: patent publication US20240417462A1
